Experimental findings from patent US6716597B2, “Methods and products for regulating cell motility” (priority 2000, dated 2004) are described below.

One assay deals with MV^D7 cells. In words: Time-lapse videomicroscopy cell speed in Ena/VASP-deficient MV^D7 fibroblasts. Format: cell-based, mouse. The settings on record: MV^D7 cells expressing the construct vs parental MV^D7. As to the method: (§1) Cells adapted to microscopy media (Life Technologies, Rockville, Md.) as described above were trypsinized, counted, and resuspended in microscopy media at 7.14×10^3 cells/mL. 1.4 mL (10,000 cells) of this cell suspension was added to a ΔT dish (Bioptechs Inc., Butler, Pa.) that had previously been coated overnight with 10 μg/mL fibronectin (Becton Dickinson) at 4° C. and then blocked with lmg/mL cell-culture-grade BSA (Sigma, St. Louis, Mo.). Cells were allowed to attach and spread for 1 hour at 37° C. before movies were initiated. 10x phase contrast movies were 4.5 hours long with a frame taken every five minutes. A custom time-lapse collection script written in IPLabs was used to automate microscope and camera function. Light was shutter controlled. Movies were considered analysis-quality if there were no focus or bubble problems and cells remained alive and dividing throughout the experiment. Once a movie met the quality control criteria, it was transferred into the image analysis program DIAS (Solltech, Inc., Oakdale, Iowa.) and cells were outlined using the Trace on Movie command. […] Cell paths were generated from the calculated centroid positions and parameters (speed and membrane flow) were calculated from the resulting path file. Speed was calculated using the Central Difference Method in DIAS, which is equivalent to a root mean squared calculation. […]

The test system of assay [1] is Rat2 cells. In words: Membrane flow (protrusion/retraction, shape change) from digitized movies. Format: cell-based, rat. The settings on record: centroid fixed, independent of translocation. The method, then: as §1
Another assay deals with Listeria. In words: Listeria motility in MVD7 cells expressing Mena constructs. Format: cell-based, Listeria monocytogenes. The settings on record: high expression level, compared with GFP-Mena high (FIG. 11). The method, then:
MVD7 cells were seeded onto a Bioptics dish the night before an experiment, and Listeria was also cultured overnight taking care to not over saturate the bacterial culture. MVD7 cells were then exposed to Listeria. The Bioptics dishes were centrifuged at 500×g for 3 min in a swinging bucket centrifuge to force the bacteria up against the MVD7 cells. The cells were then incubated for 1.5 hrs at 37° C. The plates were washed 3 times with media to remove bacteria not associated with cells. Bacteria were then viewed with 100x phase contrast microscopy. Time-lapse movies were recorded and speeds were quantitated with DIAS software.

In another assay the test system is Rat2 fibroblasts. Nature of the assay: Time-lapse videomicroscopy random migration assay (cell speed, polarity). The note with it: Rat2 cells expressing the construct. Format: cell-based, rat. The method, then: as §1, with “controlled.” for “controlled. Movies were considered analysis-quality if there were no focus or bubble problems and cells remained alive and dividing throughout the experiment. Once a movie met the quality control criteria, it was transferred into the image analysis program DIAS (Solltech, Inc., Oakdale, Iowa.) and cells were outlined using the Trace on Movie command.”
Rat 2 cells were exposed to 0, 5 nM, 25 nM, 50 nM, or 500 nM cytochalasin D and motility was measured. One set of cells received no cytochalasin D. Other cells received a low dose of cytochalasin D (e.g. 5 nM or 25 nM) or a high dose of cytochalasin D. (e.g. 500 nM) The motility of the treated cells was assessed using the motility assay described above.

Assay [2] has as its system Rat2 cells. Nature of the assay: Count of vinculin- or zyxin-positive focal adhesions per cell. Format: cell-based, rat. The settings on record: Rat2 cells after complete spreading. As to the method: Rat2 cells (ATCC, Manassas, Va.) were plated and allowed to spread for 1.5-2 hours on acid-washed glass coverslips that had been coated overnight at 4° C. with 10 μg/mL fibronectin (Becton Dickinson, Franklin Lakes, N.J.). Cells were fixed with ice-cold 4% paraformaldehyde in PBS for 10 minutes at room temperature. Cells were washed twice with PBS and then permeabilized with 0.2% Triton X-100 in PBS for 3 minutes and washed two more times with PBS. Coverslips were blocked for 30 minutes in 5% BSA (RIA grade)/5% normalized Donkey serum in PBS. All subsequent antibody steps were incubated in 1% BSA/PBS for at least 30 minutes and washes were in PBS. Anti-Mena polyclonal antisera (2197, produced by Gertler laboratory) was used at 1:400, anti-VASP polyclonal antisera (M4, Alexis Corporation, San Diego, Calif.) was used at 1:400, coumarin-phallicidin (Molecular Probes Inc., Eugene, Oreg.) was used at 1:20, anti-vinculin monoclonal antibody (F7g, a kind gift from K. Burridge) was used at 1:20. All secondary antibodies (Texas Red-, Cy5-Donkey anti-rabbit or anti-mouse, Jackson ImmunoResearch Laboratories, Inc., West Grove, Pa.) were used at 1:500. Coverslips were mounted with Fluoromount G (Electron Microscopy Sciences, Fort Washington, Pa.) and viewed on a Zeiss Axiophot microscope equipped with a Deltavision imaging and software system (Applied Precision Inc., Issaquah, Wash.).
Cell-population analysis was undertaken to explore the hypothesis that focal adhesion formation and number are unaffected by overexpression or sequestration of Ena/VASP proteins. Because cell migration depends on adhesion as well as actin polymerization at the leading edge, the various cell populations were analyzed to determine if the assembly, morphology or distribution of focal adhesions was affected. EGFP-Mena overexpressing (the “high ” population), FPPPP-mito (SEQ ID NO: 3) and control cells were each stained after complete spreading with a battery of focal adhesion markers (FAK, vinculin, paxillin, tensin, phosphotyrosine, and zyxin).

B1: EGFP-Mena: EGFP fused to full-length Mena (amino acids 1-541 of SEQ ID NO: 2), expressed from retroviral vector pMSCV (protein)
chain: MSEQSICQARAAVMVYDDANKKWVPAGGSTGFSRVHIYHHTGNNTFRVVGRKIQDHQVVINCAIPKGLKYNQATQTFHQWRDARQVYGLNFGSKEDANVFASAMMHALEVLNSQEAAQSKVTATQDSTNLRCIFCGPTLPRQNSQLPAQVQNGPSQEELEIQRRQLQEQQRQKELERERMERERLERERLERERLERERLEQEQLERQRQEREHVERLERERLERLERERQERERERLEQLEREQVEWERERRMSNAAPSSDSSLSSAPLPEYSSCQPPSAPPPSYAKVISAPVSDATPDYAVVTALPPTSTPPTPPLRHAATRFATSLGSAFHPVLPHYATVPRPLNKNSRPSSPVNTPSSQPPAAKSCAWPTSNFSPLPPSPPIMISSPPGKATGPRPVLPVCVSSPVPQMPPSPTAPNGSLDSVTYPVSPPPTSGPAAPPPPPPPPPPPPPPPLPPPPLPPLASLSHCGSQASPPPGTPLASTPSSKPSVLPSPSAGAPASAETPLNPELGDSSASEPGLQAASQPAESPTPQGLVLG
modifications: left off: large carriers
Take B1: the cell speed entry in the assay on MV^D7 cells is “The MV^D7 cells migrated significantly faster than the MV^D7/EGFP-Mena cells”. Besides, the “average membrane flow per unit time (shape change)” value in the assay with Rat2 cells [1] is listed as “changed shape the least”. Moreover, the “Listeria motility (speed)” value in the assay with Listeria is “wild-type Listeria are mobile in MVD7 cells that express EGFP-Mena”. In addition, the “cell polarity / polarized morphology” value with Rat2 fibroblasts was “distinct lack of polarity”. In the assay on Rat2 fibroblasts (fibronectin, 4.5 hour movies), the cell speed result is given as “cell speeds decreased with increasing levels of EGFP-Mena expression”. Besides, in the assay with Rat2 cells [2], the “Number of Focal Adhesions per Cell (±SD), Vinculin+” value is 72.7 ± 14.4 and the “Number of Focal Adhesions per Cell (±SD), Zyxin+” value is 73.6 ± 20.

B2: APPPP-mito: Control of FPPPP-mito with phenylalanine changed to alanine in each repeat; does not bind Ena/VASP proteins (protein)
chain: VNASDAPPPPTDEELRLALPETPMLLGFNAPATSEPSSFEAPPPPTDEELRLALPETPMLLGFNAPATSEPSSFEAPPPPTEDELEIIRETASSLDSSFTRGDLASLRNAINRHSQNFSDAPPIPTEEELNGRGGRPTSEEFSSLNSGDFTDDENSETTEEEIDRLADLRDRGTGKHSRNAGFLPLNPFASSPVPSLSPKVSKISAPALISDITKKTPFKNPSQPLNVFNKKTTTKTVTKKPTPVKTAPKLAELPATKPQETVLRENKTPFIEKQAETNKQSINMPSLPVIQKEATESDKEEMKPQTEEKMVEESESANNANGKNRSAGIEEGKLIAKSAEDEKAKEEPGNHTTLILAMLAIGVFSLGAFIKIIQLRKNN
modifications: left off: large carriers
Consider B2, for which, in the assay with Rat2 cells [2], the “Number of Focal Adhesions per Cell (±SD), Vinculin+” value worked out at 81.6 ± 13.9 and the “Number of Focal Adhesions per Cell (±SD), Zyxin+” value amounted to 79.2 ± 29.
